Measurements published in patent US9902783B2, “Antibodies and pharmaceutical compositions containing same useful for inhibiting activity of metalloproteins” (Yeda Research and Development Co. Ltd., priority 2007, dated 2018).

T1: full length native MMP-2 secreted by HT1080 cells (Homo sapiens, UniProt P08253)
T1 construct: full length native MMP-2 secreted by human fibrosarcoma (HT1080) cell cultures; endogenous in cells; host or cells: HT1080 human fibrosarcoma cells, conditioned medium
T1 sequence (P08253 30-660): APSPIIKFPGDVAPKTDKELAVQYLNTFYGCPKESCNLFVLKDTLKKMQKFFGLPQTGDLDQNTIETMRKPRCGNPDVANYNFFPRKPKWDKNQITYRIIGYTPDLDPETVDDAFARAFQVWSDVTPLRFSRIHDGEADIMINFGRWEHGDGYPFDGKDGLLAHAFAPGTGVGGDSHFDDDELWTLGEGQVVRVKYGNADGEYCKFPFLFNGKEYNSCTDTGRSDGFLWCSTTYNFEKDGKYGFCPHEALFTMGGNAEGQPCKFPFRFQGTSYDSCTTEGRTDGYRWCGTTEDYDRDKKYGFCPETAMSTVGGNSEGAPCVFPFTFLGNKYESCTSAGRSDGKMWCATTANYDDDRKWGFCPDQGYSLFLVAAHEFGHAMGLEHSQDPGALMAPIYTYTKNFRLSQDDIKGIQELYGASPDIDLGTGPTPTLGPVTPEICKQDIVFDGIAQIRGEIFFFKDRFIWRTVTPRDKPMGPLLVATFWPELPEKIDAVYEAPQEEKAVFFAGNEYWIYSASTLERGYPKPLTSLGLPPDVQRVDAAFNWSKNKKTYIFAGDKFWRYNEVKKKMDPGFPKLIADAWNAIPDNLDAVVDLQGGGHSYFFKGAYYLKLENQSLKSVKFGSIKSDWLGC

B1: 13E11: monoclonal antibody, IgG2b, raised against the hapten CoTCPP (antibody, V domains shown)
VH: EGGGLVQPGGSRKLSCAASGFTFTSFGMHWVRQAPEKGLEWVAYISSGNEIIYYADTVKGRFTISRDNPKNTLFLQMTSLRSEDTAMYYCARNYYRYGFYVMDYWGQG
VL: EIVVTQSPAILSASPGEKVTMTCRASSSVSYMHWYQQKPGSSPKPWIYATSNELASGVPARFSGSGSGTSYSLTISRVEAEDAATYYCQQWISNPLTFGAG
modifications: 13E11 mAb heavy chain; 13E11 mAb light chain
notes: monoclonal antibody, IgG2b, raised against the hapten CoTCPP
B2: 6C6: monoclonal antibody, IgG2a, raised against the hapten Imisdp; MMP-2 and MMP-9 inhibitory; SEQ ID NO: 1 (protein)
chain: CMETTQTPLSLPVSLGDQASISCRSSQSIVHSNGNTFLEWYLQKPGQSPKLLIYKVSNCRFSGVPDRFSGSGSGTDFTLKISRVEAEDLGVYYCFQASHVPPTFGGG
modifications: 6c6 mAb light chain

Tests used:
Format in all cases: binding
[1] = cross reactivity, competitive ELISA and immuno affinity assay, vitamin
Excerpt: The selectivity of anti CoTCPP and anti Imisdp was further challenged, by testing their cross reactivity with non related zinc dependent enzymes—Carbonic Anhydrase (CA) and brockii alcohol dehydrogenase (TbADH). Similar to active MMPs CA contains a zinc ion that is tetrahedraly coordinated to three histidine residues and a water molecule, TbADH contains a catalytic zinc ion that is tetraheadrally coordinated to four different amino acid residues, histidine, cysteine, aspartate and glutamate. […] Anti CoTCPP mAb was also tested for its cross reactivity with related physiological porphyrins such as the Heme group within Myoglobin and Hemoglobin and vitamin.
Carbonic anhydrase, and alcohol dehydrogenase all have rather buried active sites, similarly, the porphyrin moiety in Myoglobin and Hemoglobin is not exposed. Vitamin B 12 contains metal at the center of planer […] structure yet the axial ligands may interfere with the binding of the mAb.

[2] = target: T1, full length native MMP-2 secreted by HT1080 cells; experiment: immunoprecipitation of HT1080 conditioned medium and western blot; settings: HT1080 conditioned medium, not activated
Experimental: HT1080 cells were seeded in petri dishes. After reaching 80% confluence, the medium (DMEM supplemented with 10% FCS, nonessential amino acids, penicillin, streptomycin, sodium pyruvate, and L-glutamine) was changed to serum free medium (without FCS). Following another 24 h of incubation, conditioned medium (CM) was harvested from the adherent cells and concentrated using Millipore Centricon-10 (Bedford, Mass.). Concentrated supernatants were used for immunoprecipitations. CM was incubated with anti-1 (CoTCPP) mAb (15 μg/ml) overnight at 4° C. […] Beads were washed 3 times with PBS, suspended in SDS sample buffer, and heated to 95° C. for 3 min Immunoprecipitates were recovered by centrifugation and subjected to SDS/PAGE. After separation, proteins were transferred to nitrocellulose (NC) membranes and probed with anti-MMP-2 antibody.
To activate ProMMP-2 produced by HT1080 cells, 1 mM of 4-aminophenyl mercuric acetate (APMA) was added to the concentrated CM followed by 6 h incubation in 37° C. After activation, the CM was dialyzed (×3) against PBS at 4° C., to remove APMA Immunoprecipitation with the activated medium was performed as described above.

active MMP-9 = target: T2, active MMP-9 (Mus musculus, UniProt P41245); experiment: co-purification of active MMP-9 with mAb from mice ascites fluid (western blot); settings: co-purified from mice ascites fluid, about 82 KDa band in western blot
T2 construct: corresponding to active MMP9 lacking the pro-domain was identified; from tissue; host or cells: mouse ascites fluid
Experimental: FIGS. 11A-11D are photographs and models illustrating that 6C6 binds only the active conformation of MMP9 and MMP2. FIG. 11A: Detection of active MMP9 that co-purified with 6C6 from mice ascites fluid. MAb (10 μg) purified from mice ascites fluid containing MMP9, was subjected to western blot (WB) analysis using commercial anti MMP9 antibody. Non related IgG mAb that has been purified in the same manner, served as negative control (MAb Control). Human ProMMP9 purified from Hilla transfected cells served as molecular weight marker to discern the active species. Purification was done by affinity chromatography using protein G beads which bind mAb via its constant domain, leaving the antigen binding site free to interact with the antigen. FIGS. 11B,C: 6C6 mAb immobilized to protein A beads was analyzed for its ability to pull down ProMMP2, ProMMP9, or MMP2 catalytic fragment (lacking the hemopexin and pro domains) from solution. […]
Selected hybridomas were subcloned twice by limited dilutions, followed by large-scale production by ascites tumors primed with pristine (2,6,10,14 tetrametylpentadecane) injected BALB/c mice. […] The elution peak was analyzed by SDS-PAGE.
Purified antibodies were separated in 8% SDS-polyacrylamide gel, transferred to NC membranes (Bio-Rad), and subsequently subjected to immunoblot analysis using anti MMP-9 antibody (Sigma). […] Signals were detected using ECL (Pierce).

T2 sequence (P41245 108-730): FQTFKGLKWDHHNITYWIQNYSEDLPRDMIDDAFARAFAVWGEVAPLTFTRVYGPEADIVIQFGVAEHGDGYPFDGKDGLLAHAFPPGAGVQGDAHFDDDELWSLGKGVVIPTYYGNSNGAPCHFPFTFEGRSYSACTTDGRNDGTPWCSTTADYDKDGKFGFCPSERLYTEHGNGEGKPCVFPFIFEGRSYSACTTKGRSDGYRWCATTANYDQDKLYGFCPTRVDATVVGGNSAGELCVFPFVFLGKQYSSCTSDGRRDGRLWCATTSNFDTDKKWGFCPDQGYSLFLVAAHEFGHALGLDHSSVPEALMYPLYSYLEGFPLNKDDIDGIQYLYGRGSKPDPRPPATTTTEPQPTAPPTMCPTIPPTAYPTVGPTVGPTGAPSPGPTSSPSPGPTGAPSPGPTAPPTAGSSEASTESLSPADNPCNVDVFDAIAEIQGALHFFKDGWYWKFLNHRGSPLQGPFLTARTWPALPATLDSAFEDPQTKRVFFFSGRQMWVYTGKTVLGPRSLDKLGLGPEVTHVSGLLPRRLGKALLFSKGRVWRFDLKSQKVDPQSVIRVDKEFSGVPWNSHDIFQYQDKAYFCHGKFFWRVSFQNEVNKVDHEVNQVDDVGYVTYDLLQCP

Molecule	cross reactivity with vitamin [1]	binding to Pro-MMP-2 [2]	in vivo complex with active MMP-9 (active MMP-9)
B1	No cross was detected	but not Pro-MMP-2	–
B2	–	–	formed a specific in vivo complex
